These are literature values, as cited in paper PMC2935699.

Data set [1] concerns the target Galanin receptor 3 (UniProt O60755).
The target in data set [2] is Galanin receptor 2 (UniProt O43603).
Data set [3] addresses Galanin receptor 1 (UniProt P47211).
UniProt P47211, sequence (P47211 whole entry): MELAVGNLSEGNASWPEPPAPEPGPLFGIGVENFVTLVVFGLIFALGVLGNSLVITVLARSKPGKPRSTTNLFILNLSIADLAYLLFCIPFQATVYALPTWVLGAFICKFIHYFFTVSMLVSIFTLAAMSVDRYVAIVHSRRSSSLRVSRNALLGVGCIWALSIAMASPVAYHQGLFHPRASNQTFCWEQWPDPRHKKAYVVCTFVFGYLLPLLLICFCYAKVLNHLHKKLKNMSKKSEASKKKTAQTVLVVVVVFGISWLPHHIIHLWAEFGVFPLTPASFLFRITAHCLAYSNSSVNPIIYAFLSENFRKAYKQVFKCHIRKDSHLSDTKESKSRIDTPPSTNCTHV

UniProt O43603, sequence (O43603 whole entry): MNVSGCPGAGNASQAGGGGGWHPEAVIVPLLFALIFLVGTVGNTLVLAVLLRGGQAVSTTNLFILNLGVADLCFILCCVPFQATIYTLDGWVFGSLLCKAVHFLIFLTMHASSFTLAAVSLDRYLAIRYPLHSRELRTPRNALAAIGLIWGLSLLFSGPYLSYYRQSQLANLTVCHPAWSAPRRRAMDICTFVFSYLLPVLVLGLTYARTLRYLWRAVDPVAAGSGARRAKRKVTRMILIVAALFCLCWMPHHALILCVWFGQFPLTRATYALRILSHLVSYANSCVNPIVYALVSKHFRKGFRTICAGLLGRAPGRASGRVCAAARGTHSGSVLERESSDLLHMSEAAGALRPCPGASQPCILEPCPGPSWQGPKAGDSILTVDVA
UniProt O60755, sequence (O60755 whole entry): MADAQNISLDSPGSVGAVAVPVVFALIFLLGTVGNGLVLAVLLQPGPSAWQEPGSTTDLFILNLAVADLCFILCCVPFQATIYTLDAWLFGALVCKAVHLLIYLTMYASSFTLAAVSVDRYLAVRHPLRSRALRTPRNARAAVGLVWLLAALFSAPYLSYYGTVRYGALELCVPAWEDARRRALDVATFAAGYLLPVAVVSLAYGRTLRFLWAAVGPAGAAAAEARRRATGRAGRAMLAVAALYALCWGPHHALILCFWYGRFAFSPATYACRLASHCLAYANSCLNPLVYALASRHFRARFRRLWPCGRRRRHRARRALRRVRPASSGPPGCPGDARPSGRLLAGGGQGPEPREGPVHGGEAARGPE

Broadly, the Ki is a measure of affinity in units of concentration, obtained from inhibition or displacement. As to Galanin 1-16 1-16 (from UniProt P22466), the inhibition constant Ki in data set [1] was 49.6 nM; in data set [2], 5.66 nM; in data set [3] it was 4.8 nM.
